Values belong to the substance of their own block, whether it stands above or below them.
Assays:
[1] = biological target: β1 chain (integrin β1) (human) (UniProt P05556); assay: FACS on HT29 cells; Gt anti Mouse alone 2.52
[2] = biological target: Macaque β1 chain (Macaque); assay: FACS on macaque T-cells; Goat anti Mouse IgGFc Cy5 alone 2
[3] = biological target: human α5β1 integrin (human) (UniProt P08648); assay: FACS on human α5β1-transfected 300.19 cells, 2.0 ug/mL
[4] = biological target: β1 chain (integrin β1) (human) (UniProt P05556); assay: FACS on HT29 cells, isotype control; human secondary 2.8
[5] = biological target: human α5β1 integrin (human) (UniProt P08648); assay: FACS on human α5β1-transfected against untransfected 300.19 cells, 2.0 ug/mL
[6] = biological target: Macaque α5β1 (Macaque); assay: FACS on macaque T-cells, isotype control; Goat anti Human IgG Fc Cy5 alone 3
[7] = biological target: Macaque αv chain (Macaque); assay: FACS on macaque T-cells; Goat anti Mouse IgGFc Cy5 alone 2
[8] = biological target: αv integrin chain (UniProt P06756); assay: FACS on HT29 cells, positive control; Gt anti Mouse alone 2.52
Sequence of αv integrin chain (P06756 31-1048 limits assumed): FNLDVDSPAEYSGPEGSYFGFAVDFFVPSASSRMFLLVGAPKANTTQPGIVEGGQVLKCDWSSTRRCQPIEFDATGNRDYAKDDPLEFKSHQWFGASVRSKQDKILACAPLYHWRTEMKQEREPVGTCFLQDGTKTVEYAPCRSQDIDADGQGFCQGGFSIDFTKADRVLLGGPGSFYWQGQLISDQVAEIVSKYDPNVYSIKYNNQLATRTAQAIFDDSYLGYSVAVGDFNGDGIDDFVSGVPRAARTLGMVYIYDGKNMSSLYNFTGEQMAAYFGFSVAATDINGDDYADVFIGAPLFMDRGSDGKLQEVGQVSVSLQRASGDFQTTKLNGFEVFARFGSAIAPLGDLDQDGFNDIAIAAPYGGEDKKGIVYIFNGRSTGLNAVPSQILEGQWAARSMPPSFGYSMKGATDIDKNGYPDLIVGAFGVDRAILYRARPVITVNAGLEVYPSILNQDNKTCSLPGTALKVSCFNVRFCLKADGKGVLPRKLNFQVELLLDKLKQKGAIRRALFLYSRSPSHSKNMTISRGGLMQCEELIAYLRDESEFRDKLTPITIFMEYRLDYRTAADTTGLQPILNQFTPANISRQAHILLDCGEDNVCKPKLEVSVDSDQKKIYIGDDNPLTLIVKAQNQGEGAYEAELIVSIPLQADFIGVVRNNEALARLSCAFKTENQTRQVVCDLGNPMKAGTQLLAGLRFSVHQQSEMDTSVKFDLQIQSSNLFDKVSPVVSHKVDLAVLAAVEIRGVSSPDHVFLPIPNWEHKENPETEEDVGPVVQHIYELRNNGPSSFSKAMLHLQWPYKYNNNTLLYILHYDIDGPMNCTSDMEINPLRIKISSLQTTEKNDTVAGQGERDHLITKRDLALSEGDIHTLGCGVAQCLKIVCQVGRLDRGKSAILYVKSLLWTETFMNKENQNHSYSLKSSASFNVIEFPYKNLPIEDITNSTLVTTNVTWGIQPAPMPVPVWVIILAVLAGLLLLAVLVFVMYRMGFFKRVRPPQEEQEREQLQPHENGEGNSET

[9] = biological target: αvβ6 integrin (UniProt P06756); assay: as above
Sequence of αvβ6 integrin (P06756 31-1048, chain 1 of 2): as the sequence (P06756 31-1048 limits assumed) above
Sequence of αvβ6 integrin (P18564 22-788, chain 2 of 2, further chain): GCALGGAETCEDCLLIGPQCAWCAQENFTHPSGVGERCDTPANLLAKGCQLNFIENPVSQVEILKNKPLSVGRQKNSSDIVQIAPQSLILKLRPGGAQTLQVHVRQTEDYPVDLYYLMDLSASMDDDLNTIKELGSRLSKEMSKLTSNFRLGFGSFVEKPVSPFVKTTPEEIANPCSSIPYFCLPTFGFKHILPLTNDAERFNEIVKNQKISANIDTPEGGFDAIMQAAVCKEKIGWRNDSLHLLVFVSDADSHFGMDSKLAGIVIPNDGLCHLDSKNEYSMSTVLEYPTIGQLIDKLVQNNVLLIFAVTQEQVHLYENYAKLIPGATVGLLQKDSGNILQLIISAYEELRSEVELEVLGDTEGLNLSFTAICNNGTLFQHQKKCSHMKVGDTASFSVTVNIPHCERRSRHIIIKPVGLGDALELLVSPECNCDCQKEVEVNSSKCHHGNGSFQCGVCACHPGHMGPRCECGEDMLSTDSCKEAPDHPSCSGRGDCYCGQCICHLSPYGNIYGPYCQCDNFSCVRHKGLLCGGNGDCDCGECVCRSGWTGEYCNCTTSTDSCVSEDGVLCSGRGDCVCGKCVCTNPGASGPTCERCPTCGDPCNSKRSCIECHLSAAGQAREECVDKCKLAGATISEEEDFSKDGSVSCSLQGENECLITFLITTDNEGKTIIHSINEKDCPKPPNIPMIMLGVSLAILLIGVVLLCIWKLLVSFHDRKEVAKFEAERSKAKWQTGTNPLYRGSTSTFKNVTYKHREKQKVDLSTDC

[10] = biological target: β1 chain (integrin β1) (human) (UniProt P05556); assay: FACS on HT29 cells, isotype control; Gt anti Mouse alone 2.52
[11] = biological target: Macaque α5β1 (Macaque); assay: FACS on macaque T-cells, isotype control; Goat anti Mouse IgGFc Cy5 alone 2
[12] = biological target: human α5β1 integrin (human) (UniProt P08648); assay: FACS on human α5β1-transfected 300.19 cells, 0.2 ug/mL
[13] = biological target: human α5β1 integrin (human) (UniProt P08648); assay: FACS on human α5β1-transfected 300.19 cells, 0.02 ug/mL
[14] = biological target: β1 chain (integrin β1) (human) (UniProt P05556); assay: FACS on HT29 cells (α5 null, β1 present); Gt anti Mouse alone 2.52
[15] = biological target: human α5β1 integrin (human) (UniProt P08648); assay: FACS on human α5β1-transfected against untransfected 300.19 cells, 0.2 ug/mL
[16] = biological target: human α5β1 integrin (human) (UniProt P08648); assay: FACS on human α5β1-transfected against untransfected 300.19 cells, 0.02 ug/mL

Sequence of β1 chain (integrin β1) (human) (P05556 21-798): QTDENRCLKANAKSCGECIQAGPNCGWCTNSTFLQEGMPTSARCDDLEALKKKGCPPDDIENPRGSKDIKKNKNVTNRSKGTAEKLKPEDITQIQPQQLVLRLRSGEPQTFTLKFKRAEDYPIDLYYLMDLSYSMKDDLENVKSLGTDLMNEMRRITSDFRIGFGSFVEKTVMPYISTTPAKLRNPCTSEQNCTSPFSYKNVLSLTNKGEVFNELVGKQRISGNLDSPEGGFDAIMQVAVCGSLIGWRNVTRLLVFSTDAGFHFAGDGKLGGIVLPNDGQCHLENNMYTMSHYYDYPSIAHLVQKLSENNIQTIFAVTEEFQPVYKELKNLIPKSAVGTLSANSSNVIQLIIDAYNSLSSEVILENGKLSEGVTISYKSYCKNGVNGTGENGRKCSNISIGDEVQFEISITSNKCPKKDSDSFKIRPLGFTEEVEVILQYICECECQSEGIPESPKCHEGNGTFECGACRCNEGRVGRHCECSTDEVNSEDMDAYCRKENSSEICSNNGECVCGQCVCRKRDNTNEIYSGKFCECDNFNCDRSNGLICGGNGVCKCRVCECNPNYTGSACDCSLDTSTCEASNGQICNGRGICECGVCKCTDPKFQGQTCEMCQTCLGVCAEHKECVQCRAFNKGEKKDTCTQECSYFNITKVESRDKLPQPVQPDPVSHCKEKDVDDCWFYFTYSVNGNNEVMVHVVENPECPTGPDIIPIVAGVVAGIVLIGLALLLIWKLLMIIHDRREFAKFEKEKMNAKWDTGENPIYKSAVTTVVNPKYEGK
Sequence of human α5β1 integrin (human) (P08648 42-1049, chain 1 of 2): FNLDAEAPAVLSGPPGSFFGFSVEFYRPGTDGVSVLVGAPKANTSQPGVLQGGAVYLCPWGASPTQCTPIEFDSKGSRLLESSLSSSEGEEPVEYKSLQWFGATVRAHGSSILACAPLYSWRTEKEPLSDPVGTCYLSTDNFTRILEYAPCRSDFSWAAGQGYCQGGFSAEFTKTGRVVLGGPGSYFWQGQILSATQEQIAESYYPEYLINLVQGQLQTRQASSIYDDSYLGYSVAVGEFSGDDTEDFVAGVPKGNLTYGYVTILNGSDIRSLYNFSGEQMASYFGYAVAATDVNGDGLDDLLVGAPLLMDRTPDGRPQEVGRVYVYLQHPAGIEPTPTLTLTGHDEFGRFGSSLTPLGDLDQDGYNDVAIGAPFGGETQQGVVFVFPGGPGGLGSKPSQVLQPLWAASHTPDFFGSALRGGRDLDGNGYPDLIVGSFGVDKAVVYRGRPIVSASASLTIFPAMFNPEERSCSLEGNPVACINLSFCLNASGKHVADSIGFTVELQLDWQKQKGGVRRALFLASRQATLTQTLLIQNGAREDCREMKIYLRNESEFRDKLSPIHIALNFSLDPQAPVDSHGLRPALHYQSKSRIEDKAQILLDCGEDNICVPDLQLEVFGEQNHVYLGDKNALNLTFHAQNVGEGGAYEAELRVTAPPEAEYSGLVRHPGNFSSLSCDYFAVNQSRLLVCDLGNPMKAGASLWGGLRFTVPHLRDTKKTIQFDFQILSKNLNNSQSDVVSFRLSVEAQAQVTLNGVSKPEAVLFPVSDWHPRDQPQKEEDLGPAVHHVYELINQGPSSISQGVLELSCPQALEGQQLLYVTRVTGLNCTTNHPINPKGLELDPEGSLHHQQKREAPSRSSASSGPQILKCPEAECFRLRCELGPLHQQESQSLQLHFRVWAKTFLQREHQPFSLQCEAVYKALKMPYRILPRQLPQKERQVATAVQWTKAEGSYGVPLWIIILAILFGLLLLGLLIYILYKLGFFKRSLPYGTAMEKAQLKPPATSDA
Sequence of human α5β1 integrin (human) (P05556 21-798, chain 2 of 2, further chain): as the sequence (P05556 21-798) above

Substance: Human IgG2 (antibody)
X Geo Mean [3]: 12
Binding Geomean [4]: 2.84
Ratio (α5β1 expressing B300.19 cells against B300.19 cells) [5]: 0.8

Substance: Human IgG4 (antibody)
Binding Geomean [4]: 3.2

Substance: L230 (antibody)
Geo Mean on Macaque T-cells IgG detection [7]: 3
Binding Geomean [8]: 294

Substance: MAB2077Z (antibody)
Binding Geomean [9]: 39.2

Substance: Mouse IgG2a (antibody)
Binding Geomean [10]: 10.2

Substance: mAb 1969 (antibody)
X Geo Mean [12]: 152
X Geo Mean [3]: 194
X Geo Mean [13]: 45.1
Binding Geomean [14]: 2.69
Ratio (α5β1 expressing B300.19 cells against B300.19 cells) [15]: 6.9
Ratio (α5β1 expressing B300.19 cells against B300.19 cells) [5]: 9.5
Ratio (α5β1 expressing B300.19 cells against B300.19 cells) [16]: 2.5

The remaining lines, values ahead:

Binding Geomean [1]: 362
Geo Mean on Macaque T-cells IgG detection [2]: 141
Substance: 4B4 (antibody)

Geo Mean on Macaque T-cells IgG detection [6]: 3
Substance: Human IgG2/4 (antibody)

X Geo Mean [3]: 14.9
Binding Geomean [10]: 2.55
Geo Mean on Macaque T-cells IgG detection [11]: 2
Ratio (α5β1 expressing B300.19 cells against B300.19 cells) [5]: 0.9
Substance: Mouse IgG1 (antibody)

From patent publication US20120107324A1
